Assay results taken from patent US20250297019A1 (Genentech, published 2025).
One block for each binder: values may come before it.

Assays:
human CCR8 [1] = target: T1, human CCR8 (human, UniProt P51685 1-355); assay: cell-based or functional assay
[2] = target: T2, human Fc gamma receptor IIIa F158, GST fusion (human, UniProt P08637 17-208); assay: ELISA, captured GST-FcgR3a
T2 construct: extracellular domain; also called GST-FcgR3a.F158; FcgR3a.F158 protein; not shown: Gly-6xHis-glutathione S-transferase (GST) tag at the C-terminus
T2 sequence (P08637 17-208): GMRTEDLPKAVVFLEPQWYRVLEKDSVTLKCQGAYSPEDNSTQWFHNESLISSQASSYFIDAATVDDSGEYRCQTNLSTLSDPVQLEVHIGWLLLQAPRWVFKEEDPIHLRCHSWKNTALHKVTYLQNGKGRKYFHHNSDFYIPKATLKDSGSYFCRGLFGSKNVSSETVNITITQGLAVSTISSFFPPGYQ
Description: (§1) Briefly, an anti-GST antibody was coated on Nunc MAXISORP™ plates. GST-FcgR3a.V158 and GST-FcgR3a.F158 were captured at 500 ng/mL. Plates were then washed and then serially diluted anti-CCR8 antibodies starting at 100 μg/mL were incubated on the plate for 1 hour at room temperature. Plates were washed and bound antibody was detected by an HRP-conjugated anti-human IgG secondary antibody. Absorbance at 450 nm was measured by a plate reader. The data were fitted using a 4-parameter logistic curve in SOFTM^AX® Pro.

[3] = target: T3, human Fc gamma receptor IIIa V158, GST fusion (human, UniProt P08637 17-208); assay: ELISA, captured GST-FcgR3a
T3 construct: extracellular domain; also called GST-FcgR3a.V158; FcgR3a.V158 protein; not shown: Gly-6xHis-glutathione S-transferase (GST) tag at the C-terminus
T3 sequence (P08637 17-208 F176V): as the sequence (P08637 17-208) above, with F160V counted along it
Description: as §1

cynomolgus monkey CCR8 = target: T4, cynomolgus monkey CCR8 (cynomolgus monkey, UniProt O97665 1-356 (rhesus entry)); assay: competition of unlabelled antibody with a fixed concentration of the 125I-labelled same antibody on CHO cells stably expressing cyno CCR8 (CHO-cynoCCR8), filter plates, gamma counting
T4 construct: On CHO cells stably expressing cyno CCR8 or on cyno blood Treg cells; also called cyno CCR8; cynoCCR8
T4 sequence (O97665 other isoform, or with tags, fused parts or gaps): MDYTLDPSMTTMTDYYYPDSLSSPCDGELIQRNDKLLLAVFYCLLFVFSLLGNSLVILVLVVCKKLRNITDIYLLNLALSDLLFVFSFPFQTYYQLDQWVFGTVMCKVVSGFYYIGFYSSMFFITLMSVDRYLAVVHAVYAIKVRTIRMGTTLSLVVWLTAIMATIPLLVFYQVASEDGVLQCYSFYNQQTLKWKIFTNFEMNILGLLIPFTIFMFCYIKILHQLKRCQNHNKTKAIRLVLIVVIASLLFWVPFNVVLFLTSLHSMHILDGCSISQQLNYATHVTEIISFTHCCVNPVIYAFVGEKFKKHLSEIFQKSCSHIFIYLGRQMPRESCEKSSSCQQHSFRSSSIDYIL

human CCR8 [4] = target: T1, human CCR8; assay: cell-based or functional assay; remark: listed apart in the source
human CCR8 [5] = target: T1, human CCR8; assay: cell-based or functional assay; remark: listed apart in the source
human CCR8 [6] = target: T1, human CCR8; assay: cell-based or functional assay; remark: listed apart in the source
mouse CCR8 = target: T5, mouse CCR8 (mouse, UniProt P56484 1-353); assay: assay not described ('in vitro assays')
T5 construct: format of the KD assay of the anti-murine antibody is not described; also called mCCR8; murine CCR8
T5 sequence: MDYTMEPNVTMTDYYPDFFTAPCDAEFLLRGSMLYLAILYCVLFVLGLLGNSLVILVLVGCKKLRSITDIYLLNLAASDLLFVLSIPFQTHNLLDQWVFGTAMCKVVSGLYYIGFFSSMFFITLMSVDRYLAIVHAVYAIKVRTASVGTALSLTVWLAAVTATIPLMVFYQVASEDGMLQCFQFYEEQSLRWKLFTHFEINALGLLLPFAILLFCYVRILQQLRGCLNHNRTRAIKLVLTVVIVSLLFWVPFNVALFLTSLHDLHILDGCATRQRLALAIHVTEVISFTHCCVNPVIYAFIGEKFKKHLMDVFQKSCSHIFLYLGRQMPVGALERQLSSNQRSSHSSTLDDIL

- ADCP EC50, macrophages of donor HR/FF (FIG. 14A) (human CCR8 [1]): 0.017 nM
- ADCP EC50, macrophages of donor HR/FF (FIG. 14E) (human CCR8 [1]): 0.022 nM
- ADCP EC50, macrophages of donor HR/VF (FIG. 14C) (human CCR8 [1]): 0.01 nM
- ADCP EC50, macrophages of donor RR/FF (FIG. 14B) (human CCR8 [1]): 0.2 nM
- ADCP EC50, macrophages of donor RR/VF (FIG. 14D) (human CCR8 [1]): 0.5 nM
- fold increase in binding potency over the fucosylated counterpart [2]: ~10 fold
- fold increase in binding potency over the fucosylated counterpart [3]: ~10 fold
B1: Afuc.hu.Ab5.H13L1 (antibody, human IgG1, kappa)
heavy: not shown
light: DIQVTQSPSSLSASVGDRVTITCQASENIANALAWYQQKPGKPPKFLIYGASNLASGVPSRFSGSGSGTDFTFTISSLQPEDIATYYCQQAYYGNSFVEGTFGGGTKVEIKRTVAAPSVFIFPPSDEQLKSGTASVVCLLNNFYPREAKVQWKVDNALQSGNSQESVTEQDSKDSTYSLSSTLTLSKADYEKHKVYACEVTHQGLSSPVTKSFNRGEC
modifications: afucosylated Fc N-glycan (position Asn 299 as printed); about 80% to about 95% afucosylation
notes: also called afucosylated hu.Ab5.H13L1; Afuc.Ab5.H13L1

- IC50 (read off the curve) (cynomolgus monkey CCR8): ~0.04 nM
B2: hu.Ab5.H13L1 (antibody, human IgG1, kappa)
heavy: not shown
light: B1 light
notes: Fucosylated human IgG1 kappa; also called Ab5 variant; huCCR8 antibody hu.Ab5.H13L1 (hIgG1)

- ADCP EC50, macrophages of donor HR/FF (FIG. 14A) (human CCR8 [1]): 0.35 nM
- ADCP EC50, macrophages of donor RR/FF (FIG. 14B) (human CCR8 [1]): 0.81 nM
- ADCP EC50, macrophages of donor RR/VF (FIG. 14D) (human CCR8 [1]): 0.41 nM
- IC50 of ligand blocking (Ca2+ influx, 20 nM CCL1) (human CCR8 [4]): 57.9 nM
B3: hu.Ab4.H12L3 (antibody, human IgG1, kappa)
heavy: not shown
light: DYQMTQSPSSLSASVGDRVTITCQASQSISSYLSWYQQKPGKAPKLLIYKASTLASGVPSRFSGSGSGTDFTLTISSLQPEDFATYYCQQGYTSSNIDNIFGGGTKVEIKRTVAAPSVFIFPPSDEQLKSGTASVVCLLNNFYPREAKVQWKVDNALQSGNSQESVTEQDSKDSTYSLSSTLTLSKADYEKHKVYACEVTHQGLSSPVTKSFNRGEC

- ADCP EC50, macrophages of donor HR/FF (FIG. 14A) (human CCR8 [1]): 0.025 nM
- ADCP EC50, macrophages of donor HR/FF (FIG. 14E) (human CCR8 [1]): 0.035 nM
- ADCP EC50, macrophages of donor HR/VF (FIG. 14C) (human CCR8 [1]): 0.017 nM
- ADCP EC50, macrophages of donor RR/FF (FIG. 14B) (human CCR8 [1]): 0.12 nM
- ADCP EC50, macrophages of donor RR/VF (FIG. 14D) (human CCR8 [1]): 0.079 nM
- fold increase in binding potency over the fucosylated counterpart [2]: ~10 fold
- fold increase in binding potency over the fucosylated counterpart [3]: ~10 fold
B4: Afuc.hu.Ab4.H12L3 (antibody, human IgG1, kappa)
heavy: not shown
light: B3 light
modifications: afucosylated Fc N-glycan (position Asn 299 as printed); about 80% to about 95% afucosylation
notes: also called afucosylated hu.Ab4.H12L3; Afuc.Ab4.H12L3

- ADCC EC50 (calcein release; NK-92_F158 effector cells, CHO/hCCR8.Gna15 target cells) (human CCR8 [5]): 0.08 nM
- IC50 of CCL1 blocking (Ca2+ influx, CHO/hCCR8.Gna15 cells, 20 nM CCL1) (human CCR8 [6]): 57.9 nM
B5: hu.Ab4.H1L1 (antibody, human IgG1, V domains shown)
VH: EQQLLESGGGLVQPGGSLRLSCAVSGFSLSNYAMIWVRQAPGKGLEWVGTISLGGYTYYANWAKGRFTISKDSSKTTVYLQMNSLRAEDTAVYFCARARWSTDSAIYTYAFDPWGPGTLVTVSS
VL: DYQMTQSPSSLSASVGDRVTITCQASQSISSYLSWYQQKPGKRPKLLIYKASTLASGVPSRFSGSGSGTDFTLTISSLQPEDFATYYCQQGYTSSNIDNIFGGGTKVEIK

- ADCC EC50 (calcein release; NK-92_F158 effector cells, CHO/hCCR8.Gna15 target cells) (human CCR8 [5]): 0.02 nM
B6: hu.Ab3.H1L1 (antibody, human IgG1, kappa, V domains shown)
VH: EQQLVESGGGLVQPGGSLRLSCAVSGFSLSSYAMSWVRQAPGKGLEWIGVISASGRIIYATWAKGRFTISKDSAKTSVYLQMNSLRDEDTAVYFCARGVPSYSLVMSDWGPGTTVTVSS
VL: EPVMTQSPATLSVSPGERATLSCQASQSISNALAWYQQKPGQPPRLLIYEVSKVASGVPARFSGSGSGTEFTLTISSLQSEDFAVYYCQSAYYGNSYVWGAFGQGTKVEIKR

- Kd (mouse CCR8): 0.218 nM
B7: mouse surrogate anti-CCR8 mAb (antibody, mouse IgG2a, kappa, V domains shown)
VH: QSVKESGGRLVTPGGSLTLTCTVSRIDLNEYSMAWVRQAPGKGLEWIGYIDAGSGSAYYASWAKGRFTISKTSSTTVDLEMTTLTTEDTATYFCARDVYPGYTTGTNLGLWGPGTLVTVSS
VL: AAVLTQTPASVSAAVGGTVSISCRSSKSVYSNYLSWYQQKPGQPPKLLIYRASTLTPGVPSRFKGSGSGTQFSLTIRDVQSADAGSYYCAGGYSSGSDNTFGGGTKLEIKR
notes: Chimeric rabbit-derived murine IgG2a; also called Anti-mCCR8; anti-murine CCR8 antibody

- ADCC EC50 (calcein release; NK-92_F158 effector cells, CHO/hCCR8.Gna15 target cells) (human CCR8 [5]): 0.02 nM
B8: hu.Ab5.H1L1 (antibody, human IgG1, V domains shown)
VH: EQQLLESGGGLVQPGGSLRLSCAVSGIDLSTYAMGWVRQAPGKGLEWIGLIHRSGRTYYATWAKGRFTISKDSSKTTVYLQMNSLRAEDTAVYFCTRSYPDYSATASIWGPGTTVTVSS
VL: DIQVTQSPSSLSASVGDRVTITCQASENIANALAWYQQKPGKPPKFLIYGASNLASGVPSRFSGSGSGTDFTFTISSLQPEDIATYYCQQAYYGNSFVEGTFGGGTKVEIK
